Assay results from patent publication US7387779B2, “Anti-angiogenic proteins and fragments and methods of use thereof” (Beth Israel Deaconess Medical Center, priority 1998, dated 2008).

Key:
C-PAE cells = assay: Total protein synthesis, 35S-methionine incorporation; assay type: cell-based, bovine
Experimental: Primary human renal epithelial cells (HRE) were purchased from Clonetics (San Diego, Calif., USA) and were maintained in REGM (Clonetics Corp.). Other cell lines were obtained and maintained as described above. Cells were serum-starved for 24 hrs (0.5% FCS), stimulated with 10% FCS in the presence of T3 peptide, Tumstatin-44-131, endostatin or rapamycin for 12-24 hours. After pre-incubation of cells in methionine-free media for 1 hour, cells were labeled with ^35S-methionine for 1 hour and incorporation of radioactivity into trichloracetic acid precipitates was analyzed (Sudhakar, A. et al., 2000, Biochem. 39:12929-38; Maeshima, Y. et al., 1996, J. Amer. Soc. Nephrol. 7:2219-29). ANOVA with a one-tailed Student's t test was used to identify significant differences in multiple comparisons in the present study. A level of P<0.05 was considered statistically significant.

bovine endothelial cells = assay: Cap-dependent (LUC) / cap-independent (CAT) translation reporter; assay type: cell-based; conditions: 4.5 μM; 21 hours
[1] = system: 786-O (renal carcinoma) cells; assay: Proliferation of control cells, 3H-thymidine incorporation; assay type: cell-based, human; conditions: non-endothelial control; Canstatin up to 40 mg/ml, Tumstatin up to 20 mg/ml
Experimental: (§1) C-PAE cells were grown to confluence in DMEM with 10% fetal calf serum (FCS) and kept contact inhibited for 48 hours. Control cells were 786-O (renal carcinoma) cells, PC-3 cells, HPEC cells, and A-498 (renal carcinoma) cells. Cells were harvested with trypsinization (Life Technologies/Gibco BRL, Gaithersburg, Md., USA) at 37° C. for five minutes. […] The cells were incubated for 24 hours at 37° C. with 5% CO2 and 95% humidity. Medium was removed and replaced with DMEM containing 0.5% FCS and 3 ng/ml bFGF (R&D Systems, Minneapolis, Minn., USA). Unstimulated controls received no bFGF. […] All wells received 1 μCurie of ^3H-thymidine at the time of treatment. After 24 hours, medium was removed and the wells were washed with PBS. Cells were extracted with 1N NaOH and added to a scintillation vial containing 4 ml of ScintiVerse II (Fisher Scientific, Pittsburgh, Pa., USA) solution. Thymidine incorporation was measured using a scintillation counter. The results are shown in FIGS. 3A and 3B, which are a pair of graphs showing incorporation of ^3H-thymidine into C-PAE cells treated with varying amounts of Arresten (FIG. 3A) or endostatin (FIG. 3B). Arresten appeared to inhibit thymidine incorporation in C-PAE as well as did endostatin. Behavior of control cells treated with Arresten and endostatin is also shown in FIG. 4A, 4B, 4C, and 4D, with Arresten having little effect on 786-O cells (FIG. 4A), PC-3 cells (FIG. 4B), or HPEC cells (FIG. 4C). Endostatin had little effect on A-498 cells (FIG. 4D). All groups in FIGS. 3 and 4 represent triplicate samples. […] (C-PAE) cells were grown to confluence in DMEM with 10% fetal calf serum (FCS) and kept contact inhibited for 48 hours. Cells were harvested by trypsinization (Life Technologies/Gibco BRL, Gaithersberg, Md., USA) at 37° C. for 5 minutes. […] The cells were incubated for 24 hours at 37° C. C. with 5% CO2 and 95% humidity. Medium was removed, and replaced with DMEM containing 0.5% FCS (unstimulated) or 10% FCS (stimulated and treated cells). 786-O, PC-3 and HEK 293 cells served as controls and were also grown to confluency, trypsinized and plated in the same manner. Cells were treated with concentrations of Canstatin or endostatin ranging from 0.025 to 40 mg/ml in triplicate. In thymidine incorporation experiments, all wells received […] of ^3H-thymidine at the time of treatment. After 24 hours, medium was removed and the wells were washed 3 times with PBS. Radioactivity was extracted with 1N NaOH and added to a scintillation vial containing 4 ml of ScintiVerse II (Fisher Scientific, Pittsburgh, Pa., USA) solution. Thymidine incorporation was measured using a scintillation counter. […]

PC-3 cells = assay: as above; assay type: cell-based, human; conditions: non-endothelial control; Canstatin up to 40 mg/ml, Tumstatin up to 20 mg/ml
Experimental: as §1

Molecule: LQRFTTMPFLFCNVNDVCNF [T3]
- maximal inhibition of protein synthesis (C-PAE cells; 22.7 μM): about 45%

B1: endostatin: tumor associated angiogenesis inhibitor used as comparator (protein, UniProt P39060 1572-1754, looked up)
Endostatin: HSHRDFQPVLHLVALNSPLSGGMRGIRGADFQCFQQARAVGLAGTFRAFLSSRLQDLYSIVRRADRAAVPIVNLKDELLFPSWEALFSGSEGPLKPGARIFSFDGKDVLRHPTWPQKSVWHGSDPNGRRLTESYCETWRTEAPSATGQASSLLGGRLLGQSAASCHHAYIVLCIENSFMTASK
modifications: Endostatin
- inhibition of protein synthesis (C-PAE cells; 4.5 μM, 24 hours of serum stimulation, rapamycin 100 ng/ml): did not inhibit protein synthesis
- decrease of cap-dependent translation of LUC (bovine endothelial cells): did not affect cap-dependent translation

B2: Tumstatin: NC1 domain of the α3 chain of type IV collagen, residues 1-244 (SEQ ID NO:10) (protein, listed as Homo sapiens)
chain: GLKGKRGDSGSPATWTTRGFVFTRHSQTTAIPSCPEGTVPLYSGFSFLFVQGNQRAHGQDLGTLGSCLQRFTTMPFLFCNVNDVCNFASRNDYSYWLSTPALMPMNMAPITGRALEPYISRCTVCEGPAIAIAVHSQTTDIPPCPHGWISLWKGFSFIMFTSAGSEGTGQALASPGSCLEEFRASPFLECHGRGTCNYYSNSYSFWLASLNPERMFRKPIPSTVKAGELEKIISRCQVCMKKRH
- effect on proliferation [1]: no significant anti-proliferative effect
- effect on proliferation (PC-3 cells): no significant anti-proliferative effect

B3: Canstatin: NC1 domain of the α2 chain of Type IV collagen (SEQ ID NO:6) (protein, listed as Homo sapiens)
chain: VSIGYLLVKHSQTDQEPMCPVGMNKLWSGYSLLYFEGQEKAHNQDLGLAGSCLARFSTMPFLYCNPGDVCYYASRNDKSYWLSTTAPLPMMPVAEDEIKPYISRCSVCEAPAIAIAVHSQDVSIPHCPAGWRSLWIGYSFLMHTAAGDEGGGQSLVSPGSCLEDFRATPFIECNGGRGTCHYYANKYSFWLTTIPEQSFQGSPSADTLKAGLIRTHISRCQVCMKNL
- effect on proliferation [1]: No significant effect
- effect on proliferation (PC-3 cells): No significant effect
